Test results as given in US20180021429A1, “ANTICANCER AGENTS OR ANTIMETASTATIC AGENTS USING FSTL1 AND COMBINATION DRUG THEREOF” (PHARMA FOODS INTERNATIONAL CO., LTD., priority 2015, published 2018).

Test system: human pancreatic cancer cell line Panc1
Experiment: Inhibition of activation of tumor cells by FSTL1, Panc1 (Examples 5, 7, 9, 10, 11)
Format: cell-based
Description: It is known that tumor cells activated by stimulation with FSTL1 highly express molecule groups promoting bone metastasis and increase metastatic invasive capacity (Cancer Research 73: 6185, 2013). Thus, 2×10^7 cells/well of a human pancreatic cancer cell line Panc1 were suspended in 1 mL/well of D-MEM medium (GIBCO/Thermo Fisher Scientific Inc. Cat. No. C11885500BT) containing 10% fetal bovine serum, supplemented with 50 ng/mL (final concentration) of FSTL1 (R&D Systems, Inc.) and 10 μg/mL of the anti-FSTL1 antibody (#5-2, #5-8, #5-10, #5-43, #6-55, or #7-34) or its isotype mouse IgG (anti-DNP antibody) as a control antibody “Control”, and cultured under stimulation (6-well plate). 3 days thereafter, the number of cells was counted while the cells were stained with a PE-labeled anti-RANKL antibody (eBioscience Cat. No. 12-6619) and a PE-labeled anti-CCR2 antibody (R&D Systems, Inc. Cat. No. FAB151P) in order to examine the expression of markers indicating bone metastatic properties, and the contents of RANKL-positive cells and CCR2-positive cells were analyzed by flow cytometry using FACScan (Becton, Dickinson and Company) to calculate the numbers of cells per culture. […] Therefore, in Examples below, judgment was made with the number of cells as an index.
(§1) In the same way as in Example 5, a human pancreatic cancer cell line Panc1 was supplemented with 50 ng/mL (final concentration) of FSTL1 (R&D Systems, Inc.) and 10 μg/mL of the anti-FSTL1 antibody (the same clones as in Example 6) or a control antibody and cultured under stimulation. 3 days thereafter, the number of cells was counted while the cells were stained with a PE-labeled anti-RANKL antibody and a PE-labeled anti-CCR2 antibody, and the contents of RANKL-positive cells and CCR2-positive cells were analyzed by flow cytometry using FACScan (Becton, Dickinson and Company) to calculate the numbers of cells per culture (FIG. 99B).
as §1, with “20” for “50”, “FSTL1” for “FSTL1 (R&D Systems, Inc.)”, “(#5-2, #5-8, or #6-55)” for “(the same clones as in Example 6)”, “100B).” for “99B).”
as §1, with “FSTL1” for “FSTL1 (R&D Systems, Inc.)”, “(#5-2, #5-3, #6-55, #7-34, #8-1, #8-4, #8-7, or #8-8)” for “(the same clones as in Example 6)”, “culture.” for “culture (FIG. 99B).”
as §1, with “FSTL1” for “FSTL1 (R&D Systems, Inc.)”, “(#6-55)” for “(the same clones as in Example 6)”, “culture.” for “culture (FIG. 99B).”

[1] = Example 9: 20 ng/mL FSTL1, 10 μg/mL antibody, 3 days, FIG. 100B
[2] = Example 7: 50 ng/mL FSTL1, 10 μg/mL antibody, 3 days, FIG. 99B
[3] = Example 10: 50 ng/mL FSTL1, 10 μg/mL antibody, 3 days

Molecule	inhibitory activity against the expansion of RANKL-positive cells and CCR2-positive cells [1]	inhibitory activity against the expansion of RANKL-positive cells and CCR2-positive cells [2]	inhibitory activity against the expansion of RANKL-positive cells and CCR2-positive cells [3]	other results
#6-55: chicken-mouse chimeric anti-FSTL1 antibody clone; variable regions SEQ ID NO: 783 (light), 785 (heavy) (antibody, V domains shown, mouse constant regions) VH: AVTLDESGGGLQTPGGALSLVCKGSGFTFTSVTMQWVRQAPGKGLEWVASVCSGSSTYYAPAVKGRATISRDNGQSTVRLQLSNLRPEDTGTYYCAKIAGRARWSCTSAAYNIDAWGHGTEVIVSS VL: ASTQPSSVSAIPGETVKITCSGGGNNYGWYQQRSPGSAPVTVIYYNDNRPSNIPSRFSGSTSGSTSTLTITGVQADDEAIYYCGSWDSNTDSGIFGAGTTLTVL	exhibited inhibitory activity			inhibitory activity against the expansion of RANKL-positive cells and CCR2-positive cells (Example 11: 50 ng/mL FSTL1, at all tested doses (5, 10 and 20 μg/mL), no dose dependence, FIG. 100D): ~100%
#5-3: chicken-mouse chimeric anti-FSTL1 antibody clone; variable regions SEQ ID NO: 767 (light), 769 (heavy) (antibody, V domains shown, mouse constant regions) VH: AVTLDESGGGLQTPGGALSLVCKGSGFSFSSFNMFWVRQAPGKGLEWVAGIGKDGVPKYGAAVDGRATISKDNGQSTMRLQLNNLRAEDTGTYFCAKAAGGCSYDWCGIYAGDIDTWGHGTEVIVSS VL: ASTQPSSVSANPGETVKITCSGGSGYYYGWYQQKSPGSVPVTVIYNNNNRPSDIPSRFSGSKSGSTGTLTITGVRAEDEAVYYCGGYDNSGTGIFGAGTTLTVL		higher inhibitory activity		
#8-4: chicken-mouse chimeric anti-FSTL1 antibody clone; variable regions SEQ ID NO: 795 (light), 797 (heavy) (antibody, V domains shown, mouse constant regions) VH: AVTLDESGGGLQTPGGGLSLVCKGSGFTLSSFNMFWVRQAPGKGLEWVAGVGKDGGTAYGAAVDGRATISRDSGQSTVRLQLNNLRAEDTGTYFCAKAAGGCSYSWCGAYVGDLDAWGHGTEVIVSS VL: ASSQPSSVSANPGETVKITCSGGSGYYYGWYQQKSPGSAPVTVIYNNDNKPSDIPSRFSGSKSGSTGTLTITGVQVEDEAVYFCGGYDNSGTGIFGAGTTLTVL			high inhibitory activity	
#8-7: chicken-mouse chimeric anti-FSTL1 antibody clone; variable regions SEQ ID NO: 799 (light), 801 (heavy) (antibody, V domains shown, mouse constant regions) VH: AVTLDESGGGLQTPGGGLSLVCKGSGFTFSSFNMFWVRQAPGKGLEWVAGIGKDGVPKYGAAVDGRATISKDNGQSTLRLQLNNLRAEDTGTYFCAKAAGGCSYDWCGIYAGDIDTWGHGTEVIVSS VL: ASTQPSSVSANPGEAVKITCSGGSGSYYGWYQQKSPGSAPVTVIYNNNQRPSDIPSRFSGSKSGSTATLTITGVQAEDEAVYFCGGYDSSTGHGGIFGAGTTLTVL			high inhibitory activity	
#5-8: chicken-mouse chimeric anti-FSTL1 antibody clone; variable regions SEQ ID NO: 771 (light), 773 (heavy) (antibody, V domains shown, mouse constant regions) VH: AVTLDESGGGLQTPGGGLSLVCKGSGFTFSSFNMFWVRQAPGKGLEWVAGIGKDGVPKYGTAVDGRATISKDNGQSTMRLQLNNLRAEDTGTYFCAKAAGGCSYDWCGIYTGDIDTWGHGTEVIVSS VL: ASTQPSSVSANPGEAVKITCSGGSGSYYGWYQQKSPGSAPVTVIYNNNQRPSDIPSRFSGSKSGSTATLTITGVQAEDEAVYFCGGYDSSTGHGGIFGAGTTLTVL	exhibited inhibitory activity	higher inhibitory activity		
#5-2: chicken-mouse chimeric anti-FSTL1 antibody clone; variable regions SEQ ID NO: 763 (light), 765 (heavy) (antibody, V domains shown, mouse constant regions) VH: AVTLDESGGGLQTPGGGLSLVCKGSGFTFSSFNMFWVRQAPGKGLEWVAGVGKDGGTGYGAAVDGRATISKDNGQSTLRLQLNNLRAEDTGTYYCAKAAGGCSYGWCGSYVGDIDAWGHGTEVIVSS VL: ASTQPSSVSANPGEAVKITCSGGSGSYYGWYQQKSPGSAPVTVIYNNNQRPSDIPSRFSGSKSGSTATLTITGVQAEDEAVYFCGGYDSSTGHGGIFGAGTTLTVL			high inhibitory activity	
